# Assay results published in EP2060581A1 (Chemotherapeutisches Forschungsinstitut Georg-Speyer-Haus, dated 2009).
# Target: T1, ErbB2 receptor (UniProt P04626 23-1255)
# T1 construct: Whole endogenous receptor from cell extracts, immunoprecipitated with an ErbB2 antibody
# Assay: co-immunoprecipitation from SK-BR3 membrane extracts with an ErbB2 antibody, Western blot with Flag antibody
binder,measurement,value
"mt bTrx-All-7 (designed binder, Purified recombinant protein; Largely monomeric; also called All-7 aptamer in mutated bTrx (mt); All-7 in the mutated scaffold; not shown: Flag-tag, one or two His-tags and a 9R protein transduction domain) MSDKIIHLTDDSFDTDVLKADGAILVDFWAEWSGPPLNFYRHGFLPNAVMASMLEVGPWFELLGPCGLAGHPLSSLRIGPSKMIAPILDEIADEYQGKLTVAKLNIDQNPGTAPKYGIRGIPTLLLFKNGEVAATKVGALSKGQLKEFLDANLA",fold increase in binding against wt bTrx-All-7,2.4 fold
